Results published in patent US20020045591A1, “Methods and therapeutic compositions for treating cancer” (priority 1998, published 2002).

B1: N-cadherin: Full length chicken N-cadherin cloned into the pECE expression vector (protein)
chain: DWVIPPINLPENSRGPFPQELVRIRSDRDKSLSLRYSVTGPGADQPPTGIFIINPISGQLSVTKPLDREQIASFHLRAHAVDVNGNQVENPIDIVINVIDMNDNRPEFLHQVWNGTVPEGSKPGTYVMTVTAIDADDPNAQNGMLRYRILSQAPSSPSPNMFTINNETGDIITVAAGLDREKVQQYTLIIQATDMEGNPTYGLSNTATAVITVTDVNDNPPEFTAMTFYGEVPENRVDVIVANLTVTDKDQPHTPAWNARYQMTGGDPTGQFTILTDPNSNDGLVTVVKPIDFETNRMFVLTVAAENQVPLAKGIQHPPQSTATVSITVIDVNESPYFVPNPKLVRQEEGLLAGSMLTTFTARDPDRYMQQTSLRYSKLSDPANWLKIDPVNGQITTTAVLDRESIYVQNNMYNATFLASDNGIPPMSGTGTLQIYLLDINDNAPQVNPKEATTCETLQPNAINITAVDPDIDPNAGPFAFELPDSPPSIKRNWTIVRISGDHAQLSLRIRFLEAGIYDVPIVITDSGNPHASSTSVLKVKVCQCDINGDCTDVDRIVGAGLGTGAIIAILLCIIILLILVLMFVVWMKRRDKERQAKQLLIDPEDDVRDNILKYDEEGGGEEDQDYDLSQLQQPDTVEPDAIKPVGIRRLDERPIHAEPQYPVRSAAPHPGDIGDFINEGLKAADNDPTAPPYDSLLVFDYEGSGSTAGSLSSLNSSSSGGEQDYDYLNDWGPRFKKLADMYGGGDD
B2: β-catenin: transfected β-catenin cDNA construct (protein, UniProt P35222 2-781, looked up)
Catenin beta-1: ATQADLMELDMAMEPDRKAAVSHWQQQSYLDSGIHSGATTTAPSLSGKGNPEEEDVDTSQVLYEWEQGFSQSFTQEQVADIDGQYAMTRAQRVRAAMFPETLDEGMQIPSTQFDAAHPTNVQRLAEPSQMLKHAVVNLINYQDDAELATRAIPELTKLLNDEDQVVVNKAAVMVHQLSKKEASRHAIMRSPQMVSAIVRTMQNTNDVETARCTAGTLHNLSHHREGLLAIFKSGGIPALVKMLGSPVDSVLFYAITTLHNLLLHQEGAKMAVRLAGGLQKMVALLNKTNVKFLAITTDCLQILAYGNQESKLIILASGGPQALVNIMRTYTYEKLLWTTSRVLKVLSVCSSNKPAIVEAGGMQALGLHLTDPSQRLVQNCLWTLRNLSDAATKQEGMEGLLGTLVQLLGSDDINVVTCAAGILSNLTCNNYKNKMMVCQVGGIEALVRTVLRAGDREDITEPAICALRHLTSRHQEAEMAQNAVRLHYGLPVVVKLLHPPSHWPLIKATVGLIRNLALCPANHAPLREQGAIPRLVQLLVRAHQDTQRRTSMGGTQQQFVEGVRMEEIVEGCTGALHILARDVHNRIVIRGLNTIPLFVQLLYSPIENIQRVAAGVLCELAQDKEAAEAIEAEGATAPLTELLHSRNEGVATYAAAVLFRMSEDKPQDYKKRLSVELTSSLFRTEPMAWNETADLGLDIGAQGEPLGYRQDDPSYRSFHSGGYGQDALGMDPMMEHEMGGHHPGADYPVDGLPDLGHAQDLMDGLPPGDSNQLAWFDTDL

Columns and labels:
SW480 cells = experiment: Immunofluorescence localization in SW480 cells (Example 1); assay type: cell-based, human; conditions: transfected SW480 cells, FIG. 6B
Excerpt: (§1) Immunofluorescence microscopy: Cells cultured on glass coverslips were fixed with 3% paraformaldehyde in phosphate-buffered saline (PBS) and permeabilized with 0.5% Triton X-100. CHO cells were immunofluorescently labeled as described (Levenberg S. et al. (1998) Long-range and selective autoregulation of cell-cell and cell-matrix adhesions by cadherin or integrin ligands. J. Cell Sci. 111:347-357). Nuclei were visualized using DAPI and the fluorescence was examined using a Zeiss Axiophot microscope and a x100/1.3 Planapochromat objective.

β-catenin [1] = target: T1, β-catenin (Cricetulus griseus, UniProt G3H996); experiment: Co-immunoprecipitation of cadherin derivatives with β-catenin in CHO cells; assay type: binding; conditions: stably transfected CHO cells, FIG. 2B
T1 construct: resulting from the stabilization of the endogenous β-catenin by the transfected cadherin derivatives; endogenous in cells; host or cells: CHO cells, stably or transiently transfected with cadherin derivatives only
T1 sequence (G3H996 1-781): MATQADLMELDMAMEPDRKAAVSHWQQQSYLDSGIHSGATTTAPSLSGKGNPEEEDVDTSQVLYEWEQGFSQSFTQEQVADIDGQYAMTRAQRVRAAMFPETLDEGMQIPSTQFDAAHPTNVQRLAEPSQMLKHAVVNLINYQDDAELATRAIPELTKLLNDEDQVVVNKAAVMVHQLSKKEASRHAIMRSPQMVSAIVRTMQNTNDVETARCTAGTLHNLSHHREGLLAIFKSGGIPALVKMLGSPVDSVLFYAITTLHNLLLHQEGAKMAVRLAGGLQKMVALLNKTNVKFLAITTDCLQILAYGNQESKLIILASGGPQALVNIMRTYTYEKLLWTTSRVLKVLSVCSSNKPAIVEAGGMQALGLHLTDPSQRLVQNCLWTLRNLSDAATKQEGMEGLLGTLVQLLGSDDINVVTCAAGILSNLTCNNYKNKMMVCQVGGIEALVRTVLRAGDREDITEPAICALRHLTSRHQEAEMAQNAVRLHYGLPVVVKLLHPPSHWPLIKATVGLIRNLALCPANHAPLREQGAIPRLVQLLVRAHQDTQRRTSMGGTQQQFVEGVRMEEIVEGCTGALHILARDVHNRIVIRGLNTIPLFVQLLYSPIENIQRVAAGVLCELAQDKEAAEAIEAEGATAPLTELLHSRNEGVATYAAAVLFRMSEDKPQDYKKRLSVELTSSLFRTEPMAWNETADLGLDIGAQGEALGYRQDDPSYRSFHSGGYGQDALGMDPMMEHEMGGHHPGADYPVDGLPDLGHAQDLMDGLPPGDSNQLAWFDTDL
Excerpt: Immunoblotting and immunoprecipitation: The following antibodies were used: polyclonal pan-cadherin or monoclonal anti cadherin (CH-19) and polyclonal anti β-catenin antibodies were from Sigma (Holon, Israel). Monoclonal anti β-catenin, 5H10 (from M. Wheelock), anti IL2Rα (from UBI), anti flag (M2, from IBI), anti HA (clone 12CA5, from Boehringer Mannheim, Germany), anti GFP (polyclonal, from Clontech, Palo Alto, Calif.), anti LEF-1 (polyclonal, kindly provided by Dr. R. Grosschedl). Secondary antibodies for Western blotting were goat anti rabbit or anti mouse conjugated to HRP (Amersham, Buckinghampshire, UK), and for immunofluorescence analysis the secondary antibodies were FITC-goat anti mouse (Cappel, USA) or rhodamine-anti rabbit antibodies (from Jackson Immuno-Research, West Grove, Pa.). Cells were harvested in Laemmli's sample buffer and equal amounts of total cell protein from the different clones, or from transient transfections, were separated by SDS-PAGE, electrotransferred to nitrocellulose and incubated with the different antibodies. For immunoprecipitation, cells were harvested in IP buffer (20 mM Tris pH 8.0, 1% Triton X-100, 140 mM NaCl, 10% glycerol, 1 mM EGTA, 1.5 mM MgCl2, 1 mM DTT, 1 mM sodium vanadate, and 50 μg/ml PMSF). […]

[2] = test system: β-catenin-dependent transactivation; experiment: LEF-1 consensus luciferase transactivation in SW480 cells (Example 2); assay type: cell-based, human; conditions: co-transfection, FIG. 19A
Protocol: (§2) Cell Culture and Transfections: Canine kidney epithelial cells MDCK, human fibrosarcoma HT1080, 293-T human embryonic kidney cells, Balb/C mouse 3T3 and human colon carcinoma SW480 cell lines were cultured in Dulbecco's modified Eagle's medium supplemented with 10% calf serum (Gibco, Grand Island, N.Y.) at 37° C. in the presence of 7% CO2. The human renal carcinoma cell line KTCTL60 was grown in RPMI medium and 10% calf serum. Cells were transiently transfected with the cDNA constructs described below, using Ca^2+-phosphate or lipofectamine (Gibco) and the expression of the transgene was assessed between 24 and 48 hours after transfection. In some experiments, the expression of the stably transfected NH2 terminus-deleted β-catenin (Δ57) was enhanced in HT1080 cells by overnight treatment with 2 mM sodium butyrate.
(§3) A plasmid encoding β-galactosidase (0.5 μg) was cotransfected to enable normalization for transfection efficiency. The relevant plasmid expressing catenin constructs (4.5 μg) was co-transfected with the reporter, or an empty expression vector was included. After 24-48 hours expression of the reporter (luciferase) and the control (β-galactosidase) genes were determined using enzyme assay systems from Promega (Madison, Wis.).

β-catenin [3] = target: T1, β-catenin; experiment: β-catenin level in CHO cells by Western blot; assay type: cell-based; conditions: stably transfected CHO cells, FIG. 2A
Protocol: (§4) Cell culture and transfections: CHO and SW480 human colon carcinoma cells were cultured in Dulbecco's modified Eagle's medium containing 10% fetal calf serum in an 8% CO2 incubator at 37° C. Transfections were performed using Lipofectamine (Gibco, BRL, USA) according to the manufacturer's instructions. Stably transfected CHO clones were generated by co-transfection with a plasmid encoding the puromycin resistance gene. Two days after transfection, cells were replated in the presence of 10 μg/ml puromycin (Sigma, Holon, Israel). Stable clones were isolated 2 weeks later and tested for the expression of the transgene by Western blot analysis.
Immunoblotting and immunoprecipitation: The following antibodies were used: polyclonal pan-cadherin or monoclonal anti cadherin (CH-19) and polyclonal anti β-catenin antibodies were from Sigma (Holon, Israel). Monoclonal anti β-catenin, 5H10 (from M. Wheelock), anti IL2Rα (from UBI), anti flag (M2, from IBI), anti HA (clone 12CA5, from Boehringer Mannheim, Germany), anti GFP (polyclonal, from Clontech, Palo Alto, Calif.), anti LEF-1 (polyclonal, kindly provided by Dr. R. Grosschedl). […]

CHO cells = experiment: Immunofluorescence localization in CHO cells; assay type: cell-based; conditions: stably transfected CHO cells, FIG. 4
Excerpt: as §1

[4] = test system: β-catenin-mediated transactivation; experiment: TOPFLASH luciferase transactivation in SW480 cells (Example 1); assay type: cell-based, human; conditions: SW480 cells transfected with TOPFLASH and N-cadherin derivative, FIG. 6A
Protocol: as §4
(§5) Transactivation assays: CHO cells were transfected with TOPFLASH or FOPFLASH vectors (van de Wetering et al., 1997, ibid) and with pCDNA3 coding for β-galactosidase to normalize for transfection efficiency. The transfection mixture also contained either β-catenin, LEF-1 or cadherin derivatives in different combinations, as indicated. SW480 cells were transfected with TOPFLASH and cadherin derivatives. […] The reactions were stopped with 1 M Na2CO3 and the absorbance at 420 nm was determined. […] The luciferase reaction was monitored by a TD-20e luminometer (Turner, USA) and normalized for the β-galactosidase activity. […]

[5] = test system: β-catenin-mediated transactivation; experiment: TOPFLASH/FOPFLASH luciferase transactivation in CHO cells; assay type: cell-based; conditions: TOPFLASH with LEF-1 and β-catenin vs TOPFLASH and LEF-1 without β-catenin
Protocol: as §4, §5

[6] = test system: LEF-1-driven transcription; experiment: LEF-1 consensus (TOPFLASH) transactivation in 293 cells; assay type: cell-based, human; conditions: FIG. 18B
Protocol: as §2, §3

Row | Molecule | subcellular localization of β-catenin (SW480 cells) | interaction with β-catenin by co-immunoprecipitation (β-catenin [1]) | effect on constitutive LEF-1 driven transcription [2] | effect on β-catenin levels (β-catenin [3]) | subcellular localization of cadherin derivative and β-catenin (CHO cells) | inhibition of TOPFLASH reporter (luciferase) activity [4] | increase in luciferase activity [5] | activation of LEF-1-driven transcription [6]
1 | B1 | binding of the endogenous β-catenin to the plasma membrane | direct interaction | effectively blocked | increase in β-catenin levels | mainly associated with cell-cell junctions | about 70% | – | –
2 | B2 | – | – | – | – | – | – | about 5 fold | potent transcriptional co-activator
